Laboratory results from publication PMC5291488, “3,4-Dihydroxyphenylacetate 2,3-dioxygenase from Pseudomonas aeruginosa: An Fe(II)-containing enzyme with fast turnover” (PLoS ONE, 2017).

Substrate: O=C(O)Cc1ccc(O)c(O)c1
Experiment: purified protein
Assay type: biochemical, Pseudomonas aeruginosa
Details: air-saturated (O2 ~260 μM), 50 mM sodium phosphate pH 7.5, 25 °C, Fe(II)/DTT-activated enzyme, stock kept with 0.5 mM ascorbic acid as preservative

B1: PaDHPAO (3,4-dihydroxyphenylacetate 2,3-dioxygenase) (Pseudomonas aeruginosa PAO1) (protein)
chain: MGKVALAAKITHVPSLYLSELPGPRHGCRQPAIDGHREIGRRCRELGVDTIVVFDTHWLVNAGYHINCAPHFEGLYTSNELPHFIANMEYGFPGNPELGRILAEGCNALGVETLAHDATTLGPEYGTLVPMRYMNQDRHFKVVSVSALCTVHYLNDSARLGWAMRKAVEEHYDGTVAFLASGSLSHRFAQNGQAPDFSDRIWSPFLEVLDHEVVQMWQEGRWAEFCGMLPEYASKGHGEGFMHDTAMLLGALGWSAYDGKAEVVTPYFGSSGTGQINAVFPVTAQDGSAIPAAQAGNPAGASCASRL
notes: N-terminus MGKVA from primer
For B1, the Km was 58 ± 8 µM, the kcat was 63.5 s⁻¹ and the kcat/Km was 1.1e+06 M⁻¹ s⁻¹.
